Measured values: the nanobody polyreactivity screen of Harvey et al. (2022)

Assay: yeast display, Sf9 membrane polyspecificity reagent, FACS + sequencing; frameworks hold sequencing errors
Summary of the method: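 A nanobody's polyreactivity label depends on the gate it was sorted from. Yeast display cells were stained with 10% biotinylated, detergent-solubilized Sf9 membrane reagent for 1 hour at 4 °C, enriched on streptavidin microbeads and sorted by FACS. The low and high (top ~1%) gates were set on anti-HA fluorescence for expression and streptavidin fluorescence for reagent binding.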

| Sequence | polyreactivity (PSR sort gate) |
| --- | --- |
| QVQLVESGGGLVQAGGSLRLSCAASGRTFAYYAMGWYRQAPGKERELVAAISSGGGSTYYADSVKGRFTISRDNAKNTVYLQMNRLKPEDTSVYYCNKGFEFWGQGTQVTVSS | high polyreactivity |
| QVHLVESVGGLVQAGGSLRLICAASGRIFRRYAMGWYIQAPGKEREFVAAISYGGGSTYYADSVKGRFTISRDNAKNTVYLQMNSLKPEDSAVYYCNADVPKSLLLYYPWGYGYWGQGTQVTVSS | low polyreactivity |
| QVQLVESGGGLVQSGGSLRLSGAASGSTYGLNAMGWYRQAPRKEMELVAAITRSDITNYADSVNGRFRISRDNAKNTVYLQMNSLKPEDTAVYYCNKTPDRHRRYFGYGYWGQGTQVTVSS | low polyreactivity |
| QDHLVESGGGLVQAGGSLRLSCAASGFIFRGNAMGWYRQPPGKERELVAAISRRGGTTYYADCVKGRFTISRDNAKNTDYLQMNSLKPEDTAVYYCAAYSPLSSGMDSWGQGTQVTVSS | high polyreactivity |
| EVQLVESGGGLVQAGGSLRLSCAASGRTFSYYAMGCYRQAPGKERELVAAISGGGSTNYADSVKGRFTISRDNAKYTVYLQMNSLKPEDTAVYYCAVGGFLRYRISLGKSYYYWGQGTQVTVSS | high polyreactivity |
| QVQLVESGGGLVQAGGSLRLSCAASGGTFVTYAMGWYRQAPGKERELVAAITTGGSTYYADSVKGRFTISRDNAKNSVYLQMISLKPEDTAVYYCAAVYTGSGKRYYKGYYWGQGTQVTVSS | low polyreactivity |
| QVQLVESGGGLVQAGGSLRLSCAASGSIFSPNDMGWYRQAPGKERELVAAITSAGSTYYADSVKGRFTISRDNAKNTVYLQMNSLKPEDTAVYYCSASYISVTDYAYFPLWYGYWGQGTQVTVSS | low polyreactivity |
| QVQLVESGGGLVQAGGSLRLSCAASGPTFPFNAMGWYRQAPGKERELVAAISWRDGRTYYADSVKGRFTISRDYAKNTVYLQMNSLKPEDTAVYYCNVVKRRSDWGMDYWGQGTQVTVSS | high polyreactivity |
| QVQLVESGGGLVQAGGSLRLSCAASGITFLDYTMGWYRQAPGKERELVATISKSGGSTYYADSVKGRFTISRDNAKNTVYLQMNSLKPEDTAVYYCAARGFTFWRYYYWGQGTQVTVSS | high polyreactivity |
| QVQLVESGGGLVQAGGSLRLSCAASGLILRKYAMGWYRQAPGKEREFVAAITQTGSRTYYADSVKGRFTISRDNAKNTVYLQMNSLKPEDTAVYYCNAVNYRSSRDSGYWGQGTQVTVSS | high polyreactivity |
| QVQLVESGGGLVQAGGSLRLSSAASGRTFYYYAMGWYRQAPGKERELVAAITSRGTSTYYADSVKGRFTISRDNAKNTVYLQMNSLKPEDTAVFYCAAGFICYYGNGYDYWGQGTQVTVSS | high polyreactivity |
| QVQLVESGGGLVQAGGSLRLSCAASGRISHRNAMGWYRQAPGKERELVAAITSGGSTNYADSVKGRFTISRDNAKNTVYLQMNSLKPEDTAVYYCTTTTYHWYYYRWEIFDYWGQGTQVTVSS | low polyreactivity |
| QVHLVESGGGLVEAGGSLRLSCADSGNIFAWYAMGWYRQAPGKERELVADISSLGGSTYYADSVKGRFTISRDNATNTVYLQMNSLKPEDTEVYYCAAVWYWTQDYDYWGQGTQVTVSS | low polyreactivity |
| QLQLVESGGGLVQAGGSLRLSCAASGSIFNDTAMGSYRQAPGKDRELVAAISWNGGSTYYADSVKGRFTISRDNAKNTVYLQMNSLKPQDTAVYYCAVYARYWYLLHYRYGYWGQGTQVTVSS | low polyreactivity |
| QVQLVESGGGLVQAGCSLRLSPASGSTLAGNTMGWYRQAPGKERELVAAINDSGGSTYYADSVKGRFTISRDNAKNSVNLQMNSLKPEDTGVYYCNADGSAYIEDGYDYWGQGTQVTVSS | low polyreactivity |
| HVQLVESGGGLVQAGGSLRLSCAASGFTFGWNDMGWYRQAPGKERELVAAITWSGGSTYYADSVKGRFTISRDNAKNTVYLQMNSLKPEDTAVYYCAAVVSDYVWRYEYWGQGTQVTVSS | low polyreactivity |
| QDQLVESRVGLVQAGGSLRLSCAATGFTFLSYTMGWYIQAPCKERELLADNTRSGGSTYYADSVKGRFTISRDNAKNSVYLQMNSLKPEDTAVYFCAARYSYDRYRGSQQFYYWGQGTQVTVSS | high polyreactivity |
| QVQLVESGGGLVQAGGSLRLSCAASGLISLYYAMGWYRQAPGKERELVARITGSGGDTYYADSVKGRFTISRDNAKNTVYLQMNSLKPEDTAVSYCAAPALDWGQGTQVTVSS | low polyreactivity |
| QVQLVESGGCLVQAGGSLRLSSAASGSIFHAYAMGWYRQSPGKESELVAAITIDGSTNYADSVKGRFTISRDNAKNTVYLQMNSLKPEDTAVYYCNKDGAYDAYSYDYWGQGTQVTVSS | low polyreactivity |
| QVQLVESGGGLVQAGGSLRLSCAASGFTFKTYVMGWYRQAPGKERELVAAISRRGGSTHYADSVKGRFTISRDNAKNTVYLQMNSLKPEDTAVYYCARRWYSTWWYGYWGQGTQVTVSS | high polyreactivity |
| QVQLVESGGGLVQAGGSLRLSCAASGSIFGKYAMGWYRQAPGKERELVAAISGRGGGTYYADSVKGRFTISRDNAKNTVYLQMNSLKPEDTAVYYCNAYYSRLRYDYWGQGTQVTVSS | high polyreactivity |
| QVQLVESGGGLVQAGGSLRLSCAASGSIFQYYVMGWYRQAPGKERELDAAIRRSGTTYYADSVKGRFTISRDNAKNTVYLQMNSLKPEDTAVYYCNADSIYYYYLIEYEYWGQGSQVTVSS | low polyreactivity |

| Sequence | polyreactivity (PSR sort gate) |
| --- | --- |
| QVQLVESGGGLVQAGGSLRLSCAASGRTFYLYAMGWYRQAPGKERELVAAITFNGGSTYYADSVKGRFTISRDNAKNTVYLQMNSLKPEDTAVYYCAARLSKRSGYYYWGQGTQVTVSS | high polyreactivity |
| QVQLVESGGGLVHAGCSLPLTCAASGSTLDANAMGSYRQAPGKEMELVAAISSGGITYYADSVKGRFTFSRDNAKSTVYLQMNCLKPEDTAGYYCANRGQGFQFGRDYWGQGTQVTVSS | low polyreactivity |
| QGQLVESGGCLVQEGGSLRLSCAASGRIFWYYTMGWYRQAPGKERELVATIRSGDRKNYADSVKGRFTISLDNAKNTVYLQMNSLKPDDTAVYYCAATRALVNTHRYYYWGQGTQVTVSS | high polyreactivity |
| QVQLVESGGGLVQAGGSLRLSCAASGRIFYNYAMGWYRQAPGKERELVAAISGSGGSTYYADSVKGRFTISRDNAKNSVYLQMNSLKPEDTAVYYCSTSGPQYYSRNFDYWGQGTQVTVSS | low polyreactivity |
| QVQLVESGGGLVQAGGSLRLSCAASGSIIGRYAMAWYRPAPGQVRELVAAISTGGGRTYYADSVKGRFTISRDNAKNTVYLQMNSLKAEDTAVYYCNAGPYKGWGRMDYWGQGTQVTVSS | high polyreactivity |
| QVQLVESGGGLVQAGGSLRLSCAASGLTFSVYAMGWYRQAPGKERELVAAISGSGGSTYYADSVKGRFTISRDNAKNTVYLQMNSLKPEDTAVYYCAARYDVHYDGMDYWGLGTQVTVSS | low polyreactivity |
| QVQLVESGLGLVQAGGSLRLSCAASGRIFYLNDMGWYRQAPGIERELVADMTRSGGTTYYADSVKGRFTISRDNEKNTVYLQMNSLKPEETSVYYCAAESRFRYVYGVGYRPYLYGYWGQGTQVTVSS | low polyreactivity |
| QVQLEESGGGLVQAGGSLRLSCAASGNIFPRYAMGWYRQAPGKERELVAAISYSGARTYYADSVKGRFTISRDNAKNTVYLQMNSLKPEDTAVYYCNKRVYYPWGQGTQVTVSS | high polyreactivity |
| QVQLVESGGGLVQAGGSLRLSCAASGNIFHYYPMGWYRQAPGKERELVATISWRGDGTNYADSVKGRFTISRDNEKNTVYLQMISLKPEDTAVYYCAARGVWPDYDYWGQGTQVTVSS | low polyreactivity |
| QVQLEESGGGLVQAGGSLRISCAASGRIFRKYTMGWYRQAPGKERELVAAITGTGGSTYYADSVKGRFTISRDNAKNTVYLQMNSLKPVVTAVYYCAADYSARYGYWGQGTQVTVSS | high polyreactivity |
| QVHLVESGGGLVQAGGSLRLSCAASGLIFRRYAMGWYRQAPGKERELVAVISSGGRTYYADSVKGRFTISRDNAKNTVYLQMNSLKPEDTAVYYCAARTRSYWGTYGSYHYDYWGQGTQVTVSS | high polyreactivity |
| QVQLVESGGGLVQAGGSLRLSCAASGITFDKYAMGWYRQAPGKERQLVAAISGSDGSTYYADSVKGRFTITRDNAKNTVYLQMNSLKPEDTAVYYCAAESEYAGTYEYDYWGQGSQVTVSS | low polyreactivity |
| QVQLVESGGGLVQAGGSLRLSCAASGRIFIFTYALGWYRQAPGKERELVAAITSSGGSTYYADSVKGRFTISRDNAKNTVYLQMNSLKPEDTAVYYCIAYSYYIVHFIRYEYWGQGTQVTVSS | high polyreactivity |
| QVQLVESGGGLVQAGGSLRLSCAASGSIFAYNAMGWYRQAPGKERELVAAITRSGVNTYYADSVKGRFTISRDNAKNTVYLQMNRLKPEDTAVYYCNAVFWGLQKWPQ | low polyreactivity |
| QVQLVESGGGLVQAGGSLRLSCAASGSIFYYYAMGWYRQAPGKERELVAAINGGDTYYADSVKGRFTISRDNAKNTVYLQMNSLKPEDTAVYYCAAEGVTVEWDYDYWGQGTQVTVSS | low polyreactivity |
| QVQLVESGGGLVQAGGSLRLSCAASGRIFYPYAMGWYRQAPGKESEFVAAIRWSSGSTYYADSVKGRFTISRDNAKNTVYLQMNSLKPEDTAVYYCAAEGYDSYSYDYWGQGTQVTVSS | high polyreactivity |
| QVQLVESGGVLVQAGGSLRLSCAASGSTLGGNAMGWYRQAPGKEMELVAAITSSAGSTYYADSVKGRFTISRDNAKNTVYLQMNSLKPEDTAVYYCDADYSRDEYDYWGQGTQVTVSS | low polyreactivity |
| QVQLVESGGGLVQAGGSLRLSCAASGFTFGRYALGWYRQAPGKERELVAAISFSGGRTYYADSVKGRFTISRDKAKNTVYLQMNSLKPEDTAVYYCAARRRQEHVGRSSYARYDYWGQGTQVTVSS | high polyreactivity |
| QVQLVESGGGLVQAGGSLRLSCAASGRIFTGNAMGWYRQAPGKERELVAAISSRGGRTYYADSVKGRFTISRDNAKNTVYLQMNSLKPEDTAVYYCNAVAVAASRAYSWYDYWGQGTQVTVSS | high polyreactivity |
| QVQLVESGGGLVQAGGSLRLICAASGLTFHPYAMGWYRPAPGKERELVAAISSRGTSTYYADSVKGRFTISRDNAQNTVYLQMNCLKPEDTAVYYFAARHGPRAEAMYYWGQGTQVTVSS | high polyreactivity |
| QFQLVESGGGLVQAGGSLRLICAASGITFYPNDMGWYRQSPGKERELVAAITTNDGDTYYADSVKGRFTISRDNAKNTVYLQMNSLKPEDTAVYYCAADSGSTSEYEYWGKGTQVTVSS | low polyreactivity |
